B1: Syn-LC-CTSSpp Fab (Fab)
light: QLHKDPTLDHHWHLWKKTYGKQYKEKNEEAVRRLIWEKNLKFVMLHNLEHSMGMHSYDLGMNHLGDMTSEEVMSLMSSLRVPSQWQRNITYKSNPNRGGGGSDIQMTQSPSTLSASVGDRVTITCKCQLSVGYMHWYQQKPGKAPKLLIYDTSKLASGVPSRFSGSGSGTEFTLTISSLQPDDFATYYCFQGSGYPFTFGGGTKLEIKRTVAAPSVFIFPPSDEQLKSGTASVVCLLNNFYPREAKVQWKVDNALQSGNSQESVTEQDSKDSTYSLSSTLTLSKADYEKHKVYACEVTHQGLSSPVTKSFNRGEC
heavy: QVTLRESGPALVKPTQTLTLTCTFSGFSLSTSGMSVGWIRQPPGKALEWLADIWWDDKKDYNPSLKSRLTISKDTSKNQVVLKVTNMDPADTATYYCARSMITNWYFDVWGAGTTVTVSSASTKGPSVFPLAPSSKSTSGGTAALGCLVKDYFPEPVTVSWNSGALTSGVHTFPAVLQSSGLYSLSSVVTVPSSSLGTQTYICNVNHKPSNTKVDKKVEPKSCDKTHT
B2: Her-HC-CTSSpp IgG (antibody)
heavy: EVQLVESGGGLVQPGGSLRLSCAASGFNIKDTYIHWVRQAPGKGLEWVARIYPTNGYTRYADSVKGRFTISADTSKNTAYLQMNSLRAEDTAVYYCSRGGSGAKLAALKAKLAALKCGGGGSIEGRQLHKDPTLDHHWHLWKKTYGKQYKEKNEEAVRRLIWEKNLKFVMLHNLEHSMGMHSYDLGMNHLGDMTSEEVMSLMSSLRVPSQWQRNITYKSNPNRGGGGSCELAALEAELAALEAGGSGDYWGQGTLVTVSSASTKGPSVFPLAPSSKSTSGGTAALGCLVKDYFPEPVTVSWNSGALTSGVHTFPAVLQSSGLYSLSSVVTVPSSSLGTQTYICNVNHKPSNTKVDKKVEPKSCDKTHTCPPCPAPPVAGPSVFLFPPKPKDTLMISRTPEVTCVVVDVSHEDPEVKFNWYVDGVEVHNAKTKPREEQYNSTYRVVSVLTVLHQDWLNGKEYKCKVSNKGLPSSIEKTISKAKGQPREPQVYTLPPSRDELTKNQVSLTCLVKGFYPSDIAVEWESNGQPENNYKTTPPVLDSDGSFFLYSKLTVDKSRWQQGNVFSCSVMHEALHNHYTQKSLSLSPGK
light: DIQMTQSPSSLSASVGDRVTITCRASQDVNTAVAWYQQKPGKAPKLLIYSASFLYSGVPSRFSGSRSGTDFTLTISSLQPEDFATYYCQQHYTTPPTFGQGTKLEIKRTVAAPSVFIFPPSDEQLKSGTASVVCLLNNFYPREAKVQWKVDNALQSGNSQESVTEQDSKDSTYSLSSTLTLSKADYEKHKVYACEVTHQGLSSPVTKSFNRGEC
notes: Full-length IgG expressed in Expi293F cells and purified on protein G. The propeptide of proCTSS is grafted into CDR3H of the anti-HER2 antibody Herceptin

How the values were obtained:
Recombinant human CTSL [1] = target: T1, Recombinant human CTSL (human, UniProt P07711 114-333); experiment: ratio of Ki values from fluorogenic protease activity assays
T1 construct: Bought; also called cathepsin L
T1 sequence (P07711 114-333): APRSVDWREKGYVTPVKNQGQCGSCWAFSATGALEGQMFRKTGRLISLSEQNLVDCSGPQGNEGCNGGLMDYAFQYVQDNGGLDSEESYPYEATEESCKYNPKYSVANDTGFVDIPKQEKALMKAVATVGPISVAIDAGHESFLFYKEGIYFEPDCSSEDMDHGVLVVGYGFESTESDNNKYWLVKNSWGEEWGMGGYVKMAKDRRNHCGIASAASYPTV

Recombinant human CTSL [2] = target: T1, Recombinant human CTSL; experiment: fluorogenic protease activity assay (Z-FR-AMC), initial rates fitted to the competitive inhibition equation
Procedure: (§1) The inhibition activity of Her-HC-CTSSpp IgG was then examined with human CTSS through fluorescence-based activity assays using a fluorogenic peptide substrate Z-VVR-AMC (FIG. 5). […] CTSS and CTSL belong to the same subfamily of cathepsins. And the propeptide of proCTSS is a known inhibitor of CTSL (28,29). Therefore, the activity of Her-HC-CTSSpp IgG in inhibiting human CTSL was evaluated with a fluorogenic peptide substrate Z-FR-AMC (FIG. 5). […] To further study inhibition specificity of Her-HC-CTSSpp IgG, fluorescence-based activity assays for human CTSB and bovine trypsin were carried out in the absence or presence of Her-HC-CTSSpp IgG.
(§2) Next, inhibition potency and specificity of the designed Syn-LC-CTSSpp Fab antibody were analyzed by fluorescence-based proteolytic activity assays. […] Likewise, Syn-LC-CTSSpp Fab functions as a weaker antibody inhibitor against human CTSL.

Recombinant human CTSS = target: T2, Recombinant human CTSS (human, UniProt P25774 115-331); experiment: fluorogenic protease activity assay (Z-VVR-AMC), initial rates fitted to the competitive inhibition equation
T2 construct: Bought from R&D Systems (1183-CY-010); also called cathepsin S
Procedure: as §1, §2

Binder | fold decrease of potency for CTSL in comparison to CTSS (Recombinant human CTSL [1]) [fold] | Ki (Recombinant human CTSL [2]) [nM] | Ki (Recombinant human CTSS) [nM]
B1 | ~12 | 24.5 | 2.12
B2 | – | 49.3 | 6.03

Reference: patent publication US20240383967A1 (UNIVERSITY OF SOUTHERN CALIFORNIA, published 2024)
